Laboratory results published in US8785135B2, “Mutant G-protein coupled receptors and methods for selecting them” (Heptares Therapeutics Limited, priority 2007, dated 2014).
Like-named read-outs stand apart in the source and are kept apart here. One block for each molecule: values may come before it.

Legend:
[1] = Thermostability assay of βAR34-424 and mutants (heat detergent-solubilised receptor 30 min, then [3H]-DHA binding); conditions: heated 30 min without ligand; for Tm: turkey βAR expressed in E. coli, DDM-solubilised, [3H]-DHA binding, mean ± S.E. from duplicates
[2] = Thermostability of β adrenergic receptors expressed in mammalian cells, minus-ligand format; conditions: 0.1% dodecylmaltoside, apo-state heated, 3H-DHA added after
[3] = Stability of wild-type and mutant A2aR in different detergents; type: physicochemical; set-up: key: It was not possible to determine the Tm for some receptor-detergent combinations, because the receptor was too unstable (†)
[4] = Thermostability of A2aR and mutants (ligand binding after or during heating); type: physicochemical; conditions: for Tm +antagonist: antagonist-occupied state; for Tm −antagonist: antagonist binding; for Tm: ZM241385 bound
Description: FIG. 12 Flow chart showing the two different assay formats of ligand (+) and ligand (−) used to determine receptor thermostability.
• 1. 315 site-directed mutants made between residues 2-316 of A2aR. • 2. All of these mutants have been assayed for thermostability using an assay measuring agonist and antagonist binding after the heating step (Ligand(−) format as described in FIG. 12). • a. […] Mutations have been combined to generate mutants in a putative antagonist conformation. Wildtype A2aR has a Tm of 31° C. with ZM241385 bound. • a. Rant17 A54L+K122A+L235A Tm 48° C. (ZM241385 bound) • b. Rant19 A54L, T88A, V239A+A204L Tm 47° C. (ZM241385 bound) • c. Rant21 A54L, T88A, V239A+K122A Tm 49° C. (ZM241385 bound) • 4. Mutations from the agonist screen have been combined, but have led to only a very low level of improvement in Tm of +2° C.

[5] = target: βAR-m23 (Meleagris gallopavo, UniProt P07700, A282L/C116L/F327A/F338M/M90V/R68S/Y227A); type: binding, turkey
Chain of βAR-m23 (P07700 34-424 R68S/M90V/C116L/Y227A/A282L/F327A/F338M): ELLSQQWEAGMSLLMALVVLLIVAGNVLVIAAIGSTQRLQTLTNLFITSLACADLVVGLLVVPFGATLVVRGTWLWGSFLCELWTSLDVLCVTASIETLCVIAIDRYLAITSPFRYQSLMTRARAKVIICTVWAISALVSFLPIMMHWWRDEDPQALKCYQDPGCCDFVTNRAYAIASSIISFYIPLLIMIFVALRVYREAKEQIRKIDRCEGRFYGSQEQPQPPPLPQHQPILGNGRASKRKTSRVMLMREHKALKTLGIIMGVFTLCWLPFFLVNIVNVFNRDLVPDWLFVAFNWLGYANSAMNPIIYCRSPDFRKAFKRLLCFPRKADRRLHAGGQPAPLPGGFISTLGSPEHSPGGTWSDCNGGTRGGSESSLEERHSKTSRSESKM

[6] = target: Rant 21 (Homo sapiens, UniProt P29274, A54L/K122A/T88A/V239A); experiment: Competition assay against [3H]ZM241385, detergent-solubilised receptor; type: binding; conditions: versus wild-type A2aR
[7] = 1% DDM (no glycerol), apo-state

Molecule: m7-1: βAR34-424 mutant M90V, A282L, F338M
Tm [1]: 43.0 ± 0.8 °C

Molecule: m6-10: βAR34-424 mutant R68S, Y227A, A282L, A334L
Tm [1]: 47.4 ± 1.1 °C

Molecule: turkey β1: turkey β1 adrenergic receptor transiently expressed in mammalian cells
apparent Tm [2]: 23 °C

Molecule: human β1: human β1 adrenergic receptor
apparent Tm [2]: ~12 °C

Molecule: m6-9: βAR34-424 mutant R68S, Y227A, A234L, A282L, A334L
Tm [1]: 43.7 ± 0.4 °C

Molecule: m6-5: βAR34-424 mutant R68S, A234L, A282L, A334L
Tm [1]: 41.9 ± 0.5 °C

Molecule: Wildtype A2aR: human adenosine A2a receptor, parent
Tm Agonist-binding ([3]; 0.003% LDAO): 28 °C
Tm Antagonist-binding ([3]; 0.003% LDAO): 32 °C
Tm Agonist-binding ([3]; 0.006% FC12): 37 °C
Tm Antagonist-binding ([3]; 0.006% FC12): 43 °C
Tm Agonist-binding ([3]; 0.01% DDM): 27 °C
Tm Antagonist-binding ([3]; 0.01% DDM): 25 °C
Tm Agonist-binding ([3]; 0.1% DM): 23 °C
Tm Antagonist-binding ([3]; 0.1% DM): 10 °C
Tm Agonist-binding ([3]; 0.3% NG): †
Tm Antagonist-binding ([3]; 0.3% NG): †
Tm Agonist-binding ([3]; 0.3% NM): 22 °C
Tm Antagonist-binding ([3]; 0.3% NM): <4 °C
Tm Agonist-binding ([3]; 0.6% OG): <9 °C
Tm Antagonist-binding ([3]; 0.6% OG): †
Tm +agonist ([4]; 1% DDM (no glycerol), agonist-occupied state): 29 °C
Tm +antagonist ([4]; 1% DDM (no glycerol)): 32 °C
Tm −agonist ([4]; 1% DDM (no glycerol), apo-state, agonist binding): 21 °C
Tm −antagonist [4, 7]: 31 °C
Tm [4]: 31 °C

Molecule: m7-7: βAR34-424 mutant M90V, Y227A, F338M
Tm [1]: 45.2 ± 2.0 °C

Molecule: M90A: βAR34-424 point mutant
increase in Tm compared to βAR34-424 ([1]; DDM): 8 °C

Molecule: m6-4: βAR34-424 mutant R68S, Y227A, A234L, A282L
Tm [1]: 41.6 ± 0.1 °C

Molecule: m20: βAR34-424 mutant R68S, M90V, F327A, A334L
Tm [1]: 48.4 ± 0.7 °C

Molecule: m10-4: βAR34-424 mutant R68S, M90V, V230A, A334L
Tm [1]: 46.9 ± 1.0 °C

Molecule: 1-[4,6-propyl-^3H]-dihydroalprenolol [[^3H]-dihydroalprenolol]
Kd ([5]; membranes, n=2): 6.5 ± 0.2 nM
Kd ([5]; semipurified receptor): 12.5 nM

agonist binding weaker than parent [6]: 2-4 orders of magnitude
B1: Rant 21: A2aR mutant A54L, T88A, V239A+K122A (protein, UniProt P29274 1-412, looked up, variant A54L T88A V239A K122A)
Adenosine receptor A2a: MPIMGSSVYITVELAIAVLAILGNVLVCWAVWLNSNLQNVTNYFVVSLAAADILVGVLAIPFAITISTGFCAACHGCLFIACFVLVLAQSSIFSLLAIAIDRYIAIRIPLRYNGLVTGTRAAGIIAICWVLSFAIGLTPMLGWNNCGQPKEGKNHSQGCGEGQVACLFEDVVPMNYMVYFNFFACVLVPLLLMLGVYLRIFLAARRQLKQMESQPLPGERARSTLQKEVHAAKSLAIIAGLFALCWLPLHIINCFTFFCPDCSHAPLWLMYLAIVLSHTNSVVNPFIYAYRIREFRQTFRKIIRSHVLRQQEPFKAAGTSARVLAAHGSDGEQVSLRLNGHPPGVWANGSAPHPERRPNGYALGLVSGGSAQESQGNTGLPDVELLSHELKGVCPEPPGLDDPLAQDGAGVS
Tm Antagonist-binding ([3]; 0.003% LDAO): 42 °C
Tm Antagonist-binding ([3]; 0.006% FC12): 49 °C
Tm Antagonist-binding ([3]; 0.01% DDM): 39 °C
Tm Antagonist-binding ([3]; 0.1% DM): 28 °C
Tm Antagonist-binding ([3]; 0.3% NG): 22 °C
Tm Antagonist-binding ([3]; 0.3% NM): 25 °C
Tm Antagonist-binding ([3]; 0.6% OG): 23 °C
Tm +antagonist ([4]; 1% DDM (no glycerol)): 49 °C
Tm −antagonist [4, 7]: 41 °C
Tm [4]: 49 °C
